Changes are numbered by the printed parent chain. No end group written: not given here. *: point of attachment. Biotin = O=C1N[C@H]2[C@H](CS[C@H]2CCCCC(=O)*)N1
T1: biotinylated peptide 225 (SEQ ID NO: 64) (biotinylated (position not given))
T1 construct: Collagen-related peptide fragment on streptavidin magnetic beads
T1 peptide: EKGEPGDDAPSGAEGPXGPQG

T2: biotinylated peptide of SEQ ID NO: 19
T2 construct: Captured on a streptavidin biosensor chip; also called biotinylated peptide 054
T2 peptide: Biotin-GEPGDDGPS

T3: biotinylated peptide Bt-AEGPPGPQG (SEQ ID NO: 14)
T3 construct: also called biotinylated peptide 040; peptide 040
T3 peptide: Biotin-AEGPPGPQG

B1: monoclonal antibody 5109 (antibody, V domains shown)
VH: EVQLVESGGGSVQPGGSLKLSCAASGFTFNTYGMSWVRQTPDKRLEWVATINSNGGLTFYADSVKGRFTISRDNAKNTLYLQMNRLKSGDSGMYYCVRGYSNYARWGQGALVTVSA
VL: DVVMTQTPLTLSVTIGQSASISCKSSQSLLGSDGLTYLIWLLQRPGQSPKRLIFLVSELDSGVPDRFTGSGSGTDFTLKISRVEAEDLGVYYCCQGTHFPHTFGAGTKLELK
B2: 9A4 scFv (VH-linker-VL-HIS-MYC tags) from p9A4ICAT7-1 (scFv)
scFv: QIQLVQSGPELKKPGETVKISCKASGYTFTDYSIHWVKQAPGKGLKWMGWINTETGEPTYADDFKGRFAFSLETSASTAYLQINNLKNEDTATYFCARGGSLDYWGQGTTLTVSSGGGGSGGGGSGGGGSQIVLTQSPVFMSASPGEKVTMTCSASSSVSYMYWYQQKPGSSPRLLIHATSNLASGVPVRFSGGGSGTSYSLTISRMEAEDAATYYCQQWRSYTRTFGGGTKLEIIAAAHHHHHHGAAEQKLISEEDLNGAA
notes: Monomer purified from E. coli TG1; also called 9A4ICAT7-1 scFv; p9A4lCAT7-1
B3: 9A4 scFv (VL-linker-VH-FLAG tag) from p9A4IF-5 (scFv)
scFv: QIVLTQSPVFMSASPGEKVTMTCSASSSVSYMYWYQQKPGSSPRLLIHATSNLASGVPVRFSGGGSGTSYSLTISRMEAEDAATYYCQQWRSYTRTFGGGTKLEIILSADDAKKDAAKKDDAKKDDAKKDLEIQLVQSGPELKKPGETVKISCKASGYTFTDYSIHWVKQAPGKGLKWMGWINTETGEPTYADDFKGRFAFSLETSASTAYLQINNLKNEDTATYFCARGGSLDYWGQGTTLTVSSASDYKDDDDK
notes: Monomer purified from E. coli; also called 9A4IF-5 scFv; p9A4lF-5
B4: monoclonal antibody 9A4 (antibody, V domains shown)
VH: QIQLVQSGPELKKPGETVKISCKASGYTFTDYSIHWVKQAPGKGLKWMGWINTETGEPTYADDFKGRFAFSLETSASTAYLQINNLKNEDTATYFCARGGSLDYWGQGTTLTVSS
VL: QIVLTQSPVFMSASPGEKVTMTCSASSSVSYMYWYQQKPGSSPRLLIHATSNLASGVPVRFSGGGSGTSYSLTISRMEAEDAATYYCQQWRSYTRTFGGGTKLEIIR
notes: also called mAb 9A4; 9A4 IgG
B5: 9A4 scFv CDR3 VH mutant clone 14B (scFv)
scFv: B2 scFv with Y104H
notes: Derived from p9A4ICAT7-1
B6: 9A4 scFv CDR3 VH mutant clone 24A (scFv)
scFv: B2 scFv with A97G, D103E
notes: Derived from p9A4ICAT7-1
B7: 9A4 scFv CDR3 VH mutant clone 5C (scFv)
scFv: B2 scFv with Y104S
notes: Derived from p9A4ICAT7-1
B8: 9A4 scFv CDR3 VH mutant clone 38B (scFv)
scFv: B2 scFv with A97G, Y104S, W105C
notes: Derived from p9A4ICAT7-1
B9: 9A4 scFv CDR3 VH mutant clone 20B (scFv)
scFv: B2 scFv with A97G, S101N, Y104H, W105C
notes: Derived from p9A4ICAT7-1
B10: 9A4 scFv CDR3 VH mutant clone 13G (scFv)
scFv: B2 scFv with A97G, Y104N
notes: Derived from p9A4ICAT7-1
B11: 9A4 scFv CDR3 VH mutant clone 10C (scFv)
scFv: B2 scFv with A97G, W105C
notes: Derived from p9A4ICAT7-1
B12: 9A4 scFv CDR3 VH mutant clone 8D (scFv)
scFv: B2 scFv with Y104N
notes: Derived from p9A4ICAT7-1
B13: 9A4 scFv CDR3 VH mutant clone 15A (scFv)
scFv: B2 scFv with S101R
notes: Derived from p9A4ICAT7-1
B14: 9A4 scFv CDR3 VH mutant clone 18E (scFv)
scFv: B2 scFv with Y104V
notes: Derived from p9A4ICAT7-1

Target: T1, biotinylated peptide 225 (SEQ ID NO: 64)
Assay: told in words beside the Origen result

binding result	Binder
binds	B1

Target: T2, biotinylated peptide of SEQ ID NO: 19
Assay: ELISA-positive hybridoma supernatant, BIAcore over biotinylated peptide SEQ ID NO: 19 on streptavidin chip
Experimental: Positive wells were subjected to a second round of selection on the BlAcore™ system for those which had antibodies giving the slowest off-rates. Streptavidin (Pierce Chemical) at 100 µg/ml was conjugated using the Pharmacia Amine Coupling Kit (Pharmacia Biosensor) to carboxylated dextran coated biosensor chips (Pharmacia Biosensor) at pH 4.0 using a flow rate of 5 µl/minute for 35 minutes. Typically, 2000 RU was added. Peptide (100 ng/ml), biotinylated on residue 1 of SEQ ID NO: 19 as set forth in the Sequence Listing, was passed over the streptavidin chip at a flow rate of 100 µl/minute for 10 seconds. Supernatants containing antibody were passed over the chip (2 µl/minute for 30 seconds) and the amount of added antibody noted. The buffer was changed to HBS (Pharmacia Biosensor), and the dissociation rate noted for the next 80 seconds. The chip was cleaned with 0.1 N HCl for 30 seconds between each run to remove antibody and to get rid of any nonspecific binding. The off-rates were determined using the BlAevaluation™ software version 2.1.

binding result	Binder
binds	B1

Target: T3, biotinylated peptide Bt-AEGPPGPQG (SEQ …)
Assay: BIAcore, biotinylated peptide SEQ ID NO: 14 on streptavidin chip
Experimental: Positive wells in the ELISA were subjected to a second round of selection on the BIAcore™ system. Wells were sought that produced antibodies having slow off rates on the BIAcore™ system as determined using BIAevaluation™ version 2.1 software (Pharmacia Biosensor, Piscataway, N.J.). Streptavidin (Pierce Chemical) at 100 μg/ml was conjugated using the Pharmacia Amine Coupling Kit (Pharmacia Biosensor) to carboxylated dextran-coated biosensor chips (Pharmacia Biosensor) at a pH 4.0 using a flow rate of 5 μl/minute for 35 minutes. Typically, 2000 RU was added. Peptide (100 ng/ml) biotinylated on residue of 1 of SEQ ID NO: 14 as set forth in the Sequence Listing, was passed over the streptavidin chip at a flow rate of 100 μl/minute for 10 seconds. Candidate supernatants containing antibody were passed over the chip (2 μl/minute for 30 seconds) and the amount of added antibody noted. The buffer was changed to HBS (HEPES buffered saline, Pharmacia Biosensor), and the dissociation rate noted for the next 80 seconds. The chip was cleaned with 0.1 N HCl for 30 seconds between each run to remove residual antibody and to clear any nonspecific binding. The off-rates were determined using BIAevaluation™ kinetic analysis software version 2.1. Clones with the slowest off rates were selected for further analysis. These clones included 9A4, 11F2, and 3H10.
Binding to antigen was evaluated on the BlAcore™ system for both the p9A4lCAT7-1 and p9A4lF-5 scFv purified gene products as follows. A streptavidin chip was loaded with biotinylated peptide of SEQ ID NO: 14 as given in Example 1 above.

koff [s⁻¹]	Kd [nM]	Binder
0.0012	–	B2
–	110	B3
0.0176	120	B4

Target: T3, biotinylated peptide Bt-AEGPPGPQG (SEQ …)
Assay: BIAcore, scFv over biotinylated peptide SEQ ID NO: 14 on streptavidin chip, dissociation 280 s
Experimental: Off-rates for the scFv constructs were measured by analysis of dissociation data obtained on the BlAcore™ system (Pharmacia Biosensor) with BlAevaluation™ version 2.1 software. To obtain the data on the BlAcore™ system, streptavidin surfaces on the BlAcore™ chips were prepared as described previously in Example 1. Biotinylated peptide (SEQ ID NO: 14) was bound to the prepared streptavidin surfaces to RU densities ranging from about 2–11 RU's/surface. The lower level of derivatization would help avoid getting erroneous off-rates that could be obtained if mass transport was an issue. Purified scFv's were injected over these surfaces to allow binding of the constructs for 60 seconds. PBS buffer alone was then substituted and the dissociation of scFv was allowed to proceed for an additional 280 sec. Off-rates were calculated from these dissociation data.

koff [s⁻¹]	Binder
0.003	B2
0.0027	B5
0.0025	B6
0.0025	B7
0.0026	B8
0.0028	B9
0.0103	B10
0.0094	B11
0.0104	B12
0.0035	B13
0.014	B14
0.0048	B3

From patent US6642007 (Pfizer, dated 2003)
